The record followed here is publication PMC5777247, “Cohesin SA2 is a sequence-independent DNA-binding protein that recognizes DNA replication and repair intermediates”.

Series [1] deals with T1, SA2 (STAG2), full length (human, UniProt Q8N3U4 1-1231).
T1 sequence: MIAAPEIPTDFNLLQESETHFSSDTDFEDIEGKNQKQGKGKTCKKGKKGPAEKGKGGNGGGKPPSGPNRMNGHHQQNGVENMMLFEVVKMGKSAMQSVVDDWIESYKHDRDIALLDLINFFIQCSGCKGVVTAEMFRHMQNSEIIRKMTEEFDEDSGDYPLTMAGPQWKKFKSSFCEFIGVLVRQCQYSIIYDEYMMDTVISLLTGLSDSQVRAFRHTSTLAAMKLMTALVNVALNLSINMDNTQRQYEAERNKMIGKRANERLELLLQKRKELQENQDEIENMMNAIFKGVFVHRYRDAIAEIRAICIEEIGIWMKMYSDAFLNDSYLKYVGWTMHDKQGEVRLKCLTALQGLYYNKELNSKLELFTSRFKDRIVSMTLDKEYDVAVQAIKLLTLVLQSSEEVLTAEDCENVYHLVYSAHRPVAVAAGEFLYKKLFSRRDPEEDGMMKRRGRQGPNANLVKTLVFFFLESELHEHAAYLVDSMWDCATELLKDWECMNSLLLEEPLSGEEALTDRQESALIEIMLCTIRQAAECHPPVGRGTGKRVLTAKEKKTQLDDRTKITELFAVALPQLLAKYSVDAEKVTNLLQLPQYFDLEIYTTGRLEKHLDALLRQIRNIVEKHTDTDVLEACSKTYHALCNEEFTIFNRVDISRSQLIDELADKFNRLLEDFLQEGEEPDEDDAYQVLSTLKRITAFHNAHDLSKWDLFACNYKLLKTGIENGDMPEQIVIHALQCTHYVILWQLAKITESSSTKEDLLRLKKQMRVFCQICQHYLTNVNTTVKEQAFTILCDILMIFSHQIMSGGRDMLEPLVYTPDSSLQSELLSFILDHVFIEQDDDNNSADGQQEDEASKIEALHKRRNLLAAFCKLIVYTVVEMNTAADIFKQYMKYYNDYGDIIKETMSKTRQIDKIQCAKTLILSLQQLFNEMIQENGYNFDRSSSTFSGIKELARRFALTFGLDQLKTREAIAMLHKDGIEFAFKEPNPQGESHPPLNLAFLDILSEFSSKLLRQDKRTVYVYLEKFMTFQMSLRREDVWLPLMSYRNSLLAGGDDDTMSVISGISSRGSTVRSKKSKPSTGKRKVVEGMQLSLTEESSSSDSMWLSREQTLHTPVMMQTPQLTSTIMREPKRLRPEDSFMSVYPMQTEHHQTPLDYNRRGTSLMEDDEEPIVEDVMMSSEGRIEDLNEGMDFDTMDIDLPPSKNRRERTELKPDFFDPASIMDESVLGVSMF
Briefly: AFM. As to conditions: Anisotropy: 20 mM Hepes pH 7.5, 0.1 mM MgCl2, 0.5 mM DTT, 100 mM KCl, 1 nM DNA, AFM: 20 mM Hepes pH 7.5, 100 mM KCl, 0.1 mM MgCl2, room temperature, 20 min.

Series [2] has as its target His-tagged full-length SA2 (amino acids 1-1231, 141 kDa) (human) (UniProt Q8N3U4). Briefly: single-molecule fluorescence imaging on DNA tightropes; QD-labeled His-SA2 on DNA tightropes (centromeric, telomeric, gapped) between silica beads, oblique angle TIRF, no buffer flow; encounters of SA2-QDs on DNA followed in kymographs.
For series [3] the target is unchanged. The experiment in a line: AFM volume analysis; SA2 incubated with linear DNA substrates in 20 mM Hepes (pH 7.5), 100 mM KCl, 0.1 mM MgCl2 at room temperature for 20 min, deposited on mica; number of SA2 molecules in DNA-bound complexes from the AFM volume calibration curve.
The target of series [4] is T1, SA2 (STAG2), full length. The experiment in a line: fluorescence anisotropy. As to conditions: Anisotropy: 20 mM Hepes pH 7.5, 0.1 mM MgCl2, 0.5 mM DTT, 100 mM KCl, 1 nM DNA; AFM: 20 mM Hepes pH 7.5, 100 mM KCl, 0.1 mM MgCl2, room temperature, 20 min. Background: Polarisation of emitted light reports the rotation of a fluorescent probe.
For series [5], the target named is T2, SA2 1-1051 (human, UniProt Q8N3U4 1-1051).
T2 sequence: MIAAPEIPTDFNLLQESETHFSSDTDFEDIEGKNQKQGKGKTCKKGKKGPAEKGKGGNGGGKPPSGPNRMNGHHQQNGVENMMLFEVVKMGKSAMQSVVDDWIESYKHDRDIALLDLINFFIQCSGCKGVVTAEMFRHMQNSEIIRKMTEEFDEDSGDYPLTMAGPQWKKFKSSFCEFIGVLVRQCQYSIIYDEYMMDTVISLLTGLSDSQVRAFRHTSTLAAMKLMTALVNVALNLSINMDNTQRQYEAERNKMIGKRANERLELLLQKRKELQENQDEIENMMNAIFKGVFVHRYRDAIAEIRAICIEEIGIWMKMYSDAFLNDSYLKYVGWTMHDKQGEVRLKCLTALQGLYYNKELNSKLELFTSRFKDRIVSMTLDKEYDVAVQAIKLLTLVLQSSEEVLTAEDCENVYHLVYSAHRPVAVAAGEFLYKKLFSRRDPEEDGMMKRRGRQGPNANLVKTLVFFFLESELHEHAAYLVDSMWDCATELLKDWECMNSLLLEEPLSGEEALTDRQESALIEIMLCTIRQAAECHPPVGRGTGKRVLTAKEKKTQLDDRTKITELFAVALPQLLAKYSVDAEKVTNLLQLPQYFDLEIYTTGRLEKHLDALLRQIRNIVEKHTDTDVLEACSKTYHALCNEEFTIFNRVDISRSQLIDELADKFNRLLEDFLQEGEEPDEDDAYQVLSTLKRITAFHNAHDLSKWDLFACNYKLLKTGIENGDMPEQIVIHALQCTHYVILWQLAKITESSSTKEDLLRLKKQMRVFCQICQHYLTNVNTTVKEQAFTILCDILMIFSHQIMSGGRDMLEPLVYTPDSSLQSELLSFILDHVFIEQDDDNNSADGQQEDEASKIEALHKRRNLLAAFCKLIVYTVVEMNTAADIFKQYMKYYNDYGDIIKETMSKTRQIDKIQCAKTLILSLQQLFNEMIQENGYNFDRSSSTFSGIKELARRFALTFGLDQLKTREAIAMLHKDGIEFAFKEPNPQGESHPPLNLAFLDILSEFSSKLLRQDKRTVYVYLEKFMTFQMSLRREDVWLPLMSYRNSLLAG
The experiment in a line: AFM. The note with it: Anisotropy: 20 mM Hepes pH 7.5, 0.1 mM MgCl2, 0.5 mM DTT, 100 mM KCl, 1 nM DNA, AFM: 20 mM Hepes pH 7.5, 100 mM KCl, 0.1 mM MgCl2, room temperature, 20 min.

Series [6] concerns the target T1, SA2 (STAG2), full length. Briefly: fluorescence anisotropy; Anisotropy: 20 mM Hepes pH 7.5, 0.1 mM MgCl2, 0.5 mM DTT, 100 mM KCl, 1 nM DNA; AFM: 20 mM Hepes pH 7.5, 100 mM KCl, 0.1 mM MgCl2, room temperature, 20 min. As to conditions: protein: recombinant, tags: 6xHis.
The target of series [7] is T1, SA2 (STAG2), full length. The experiment in a line: fluorescence anisotropy; uncertain: low saturation; Anisotropy: 20 mM Hepes pH 7.5, 0.1 mM MgCl2, 0.5 mM DTT, 100 mM KCl, 1 nM DNA; AFM: 20 mM Hepes pH 7.5, 100 mM KCl, 0.1 mM MgCl2, room temperature, 20 min. As to conditions: protein: recombinant; tags: 6xHis; label: 5' Alexa 488.
The target in series [8] is T2, SA2 1-1051. The experiment in a line: fluorescence anisotropy; Anisotropy: 20 mM Hepes pH 7.5, 0.1 mM MgCl2, 0.5 mM DTT, 100 mM KCl, 1 nM DNA; AFM: 20 mM Hepes pH 7.5, 100 mM KCl, 0.1 mM MgCl2, room temperature, 20 min. The note with it: protein: recombinant; tags: 6xHis; label: Alexa 488; blunt.
[9] abbreviates: DNA ends vs internal, no centromere preference.

Several values for one entry are separate records, joined by “and”; a condition that tells them apart may be missing. Identical values can stand only once.

The molecule Cen-end DNA yielded a binding signal in series [1] (setting [9]) of 2600 KSP/KNSP. Still for that read-out and setting: in the case of Cen-mid DNA it was 2130 KSP/KNSP. As to “His-tagged full-length SA2 (amino acids 1-1231, 141 kDa) (from UniProt Q8N3U4 1-1231) (natural protein)”, the percent of SA2-SA2 encounters on DNA that formed complexes in series [2] is 8%. Moreover, the stoichiometry N (SA2 molecules) in series [3] is 5 and 4. In series [1] (55.6% of bound SA2 at fork junction), circular replication fork template had a binding signal of 26 % DNA bound. Turning to ds66 telomeric, in series [4], the Kd – broadly, the constant that tells how readily two partners part at equilibrium – turned out to be 88 nM. In series [1] (flap vs internal), linear flap DNA (AFM) came in with a binding signal of 4260 KSP/KNSP.

Regarding linear gapped DNA, the binding signal came out at 1690 KSP/KNSP in series [5] (DNA ends vs internal, substrate for end value inferred); 1810 KSP/KNSP in series [5] (ssDNA gap vs internal); 1990 KSP/KNSP in series [1] (ssDNA gap vs internal).

linear replication fork DNA (AFM) had a binding signal in series [1] (replication fork vs internal) of 3150 KSP/KNSP. In series [1] (fork vs internal), linear single-stranded fork DNA (AFM) came in with a binding signal of 2950 KSP/KNSP.

The molecule replication fork (anisotropy) had a Kd in series [4] of 133 nM. With TGTCGCATAGTGTAGTCGGTCTTGTTCGGTCATAGCTCATCGTGG (ssDNA) [ss45 (oligo 1)], in series [6] (label: 5' Alexa 488), the Kd was 118 ± 5.3 nM.

B1: ds45 (oligo 1 + oligo 2) (dsDNA)
DNA 1: TGTCGCATAGTGTAGTCGGTCTTGTTCGGTCATAGCTCATCGTGG
DNA 2: CCACGATGAGCTATGACCGAACAAGACCGACTACACTATGCGACA
On to B1, for which the Kd in series [6] (label: 5' Alexa 488 on strand 1, blunt) turned out to be 175 ± 12.9 nM.

As for TGTCGCATAGTGTAGTCGGTCTTGT (ssDNA) [ss25], the Kd in series [7] was around 445 nM.

B2: ds66 non-telomeric (Alexa ss66 + ss66-com) (dsDNA)
DNA 1: CTGGATCCGTACAGTGTAAGGGTGAGTGGTTGGGTGTGTGGGTGTTGATGTAGAACAAGAATTCGA
DNA 2: TCGAATTCTTGTTCTACATCAACACCCACACACCCAACCACTCACCCTTACACTGTACGGATCCAG
For the molecule B2, the Kd worked out at 198 nM in series [8] and 76.2 ± 3.9 nM in series [6] (label: Alexa 488, blunt). TGTCGCATAGTGTAG (ssDNA) [ss15]: in series [7], the Kd is around 1000 nM.
